Results: the DeepSol protein solubility set

Experiment: soluble on expression in E. coli; label from the status in PepcDB or PDB records

Row | Sequence | soluble on expression in E. coli
1 | MQVLHVCSEMFPLLKTGGLADVIGALPAAQIADGVDARVLLPAFPDIRRGVTDAQVVSRRDTFAGHITLLFGHYNGVGIYLIDAPHLYDRPGSPYHDTNLFAYTDNVLRFALLGWVGAEMASGLDPFWRPDVVHAHDWHAGLAPAYLAARGRPAKSVFTVHNLAYQGMFYAHHMNDIQLPWSFFNIHGLEFNGQISFLKAGLYYADHITAVSPTYAREITEPQFAYGMEGLLQQRHREGRLSGVLNGVDEKIWSPETDLLLASRYTRDTLEDKAENKRQLQIAMGLKVDDKVPLFAVVSRLTSQKGLDLVLEALPGLLEQGGQLALLGAGDPVLQEGFLAAAAEYPGQVGVQIGYHEAFSHRIMGGADVILVPSRFEPCGLTQLYGLKYGTLPLVRRTGGLADTVSDCSLENLADGVASGFVFEDSNAWSLLRAIRRAFVLWSRPSLWRFVQRQAMAMDFSWQVAAKSYRELYYRLK | not soluble
2 | MQVLRLMALPLFALSLSVSITGCDQKNDTLQGKQNNMTAFIKKIAASKESEETQRYVGNLNGIEIKLTYYYKGDIVLRQISEHKLLYKTLKANNKEEAQKMLSQVGEAYQGMPGLTERIDYYDSYATEYVDINFTQAKISDLCKLPGSSIDNCSAYYLSMIRSQKLLEESGYHRIN | not soluble
3 | MQVLSEATPMTNGEVYALLRRRRDERNAARHPPFGLQPVLADSHQRAAVATGAAAATAVAPSAPASASAISRAASVMSHNSVGQHSGSKAAPAGAIESAASAAAASTASILASPSSVHLVVLLTEVTMLNYIANHSSLLLESARPTPAGVRVRTCTPRDVYGPTSVYNRVVGTEGRSDAAVGASATAAGSLLDAELVSSCYAKLASHRPGTRGHVRGVEELLEHFEEVGRAQERLYAAGVRRAVQQLWRRRLWVPAEGLYPPPSPPFATTAPSLSNGSALVKAEPVAEEDVDGTAEAVQRLSQDKAARQSGAGETNHDAEGAQPTNASHLVTPLLLEPTPLWGPAARNGGGKGSVDGGAATASMAHSPLSYHVQLQLQQASRSLLSEAEVLQLVVGRPQRALDVYRLLDDVDDRLQYREEAVNAFVEAVTGVFAE | not soluble
4 | MQVQRAITRNLAKANGYFNKTFKPPTVNYTVRGLKAGVAYLQQNQIRFNPILLQENGQAFIQQVIPHELAHILVFQQFGHVLPHGKEWQMMMEQVLGTSAEVYHTFNTQNVAGQQFAYICACQTHLLSIRLHNAILKNKRQYICKQCKQVLYYKDVLANYSNNTKKLEHHHHHH | not soluble
5 | MQYIKIHALDNVAVALADLAEGTEVSVDNQTVTLRQDVARGHKFALTDIAKGANVIKYGLPIGYALADIAAGEHVHAHNTRTNL | soluble
6 | MRAADAPDAPLPEDRRNAPVWFAHDLEAPRCTALFPRLADRRPALVVVGGFLGSGKTTFLNNCIEYHRARERFVAVIQNEVGATGVDARLMGDGAEVLALDEGCVCCSLAGSLAGGIRAITADFTPEVILLETTGLANPLNLLAELDTLRDMVRLDAVVTVVDAANIVPTLRDSDIARDQIRGADIIVCNKCDTVDETGRAALRATLTGLNGRAALHETSFGRIHPSLFMALEGERPPRGLMPAPHGTHATHADEGFAAVRLFFSGTIDEAALAPLLQQCPGAPFRIKGIVRVTDDEAPRLVQCVGARCEVERLDGGFEGTPFLVFIGRNPDETALLEHWAALGATAEPPAPQAEADTQPAQATKSASGGQSSDATRGCHDHHLEHHHHHH | not soluble
7 | MRALGQNPTNAEVLKVLGNPKSDEMNVKVLDFEHFLPMLQTVAKNKDQGTYEDYVEGLRVFDKEGNGTVMGAEIRHVLVTLGEKMTEEEVEMLVAGHEDSNGCINYEELVRMVLNG | soluble
8 | MRALLFTSVVLLALAFVEAKKQTITVKGTTICNKKRIQAEVTLWEKDTLDPDDKLASMQSNKEGEFSLTGSDDEITSISPYLIITHNCNVKKAGCKRVSEYLIPKEKIGGTYDMTYVTLDILSAKDKEKC | not soluble
9 | MRANIWQILSVSVLFFFGTAIGQAQSRNRTYEAYVKQYADEAIRQMSRYNIPASITIAQALVETGAGASTLASVHNNHFGIKCHKSWTGKRTYRTDDAPNECFRSYSAARESYEDHSRFLLQPRYRPLFKLDREDYRGWATGLQRCGYATNRGYANLLIKMVELYELYALDREKYPSWFHKSYPGSNKKSHQTTKQKQSGLKHEAYFSYGLLYIIAKQGDTFDSLAEEFDMRASKLAKYNDAPVDFPIEKGDVIYLEKKHACSISKHTQHVVRVGDSMHSISQRYGIRMKNLYKLNDKDGEYIPQEGDILRLR | not soluble
10 | MRAVFRTDIGQIREHNEDSGGVFVNQSGQYLAVVADGMGGHRAGDVASSMAVAYLQERWEKESGLASPAEAEQWLKTQIASANEQLFRHALSHPECQGMGTTVVAAVCANSFATVAHIGDSRCYVLNKSGIQQLTDDHSLVNELVKSGQLSKEAAEHHPRKNVLLRALGTEPAVKIDVKTVALDEGDMLLLCSDGLSNKVPEADMIHILTGAGTLEEKAEALIQLANGRGGEDNISLAVIDVSAEREGG | not soluble
11 | MRAVVLKGFGGLEMLEERDLPVPEPGPGEVLVRNLAVAVNPVDAKIRAAGRWAGVEPPFVLGYDAAGVVAKVGPGVKDLKEGDEVYYTPEIFGNPHGTYAEYTPVPAGIVAKKPKNLSFAEAAAIPLAGGTAWKAVVRRLAVRPGETVLVMGGAGGVGSFAVQFAKAAGAYVIATASAENLPVLKELGADLALDYRGPWAEEVLKATEGQGVDAAFETAGESLVERVIPVVRPFGRIATILPPQGNLSGLYTKNQTLYGVFLTRERKRLLEMRPLFERGLARPLIAEVLPFSLENLRKAHARMDSGHGRGKIVLTFQA | soluble
12 | MRCMTLPAYDIAILGAGPVGRVLALLLARLTPQPQRIALLQGGAGLPPTPAGTLGPAADPRVLALNHGSRVLLESLRAWPAHAAEIRHIHVSQRGRLGRTVIDREDFDVPQLGNVVAYAALHAQLEQAVQDCGVTVLSGPPARVDGQDGEGLTVRQGDAALHCRLAVQCDGAGGSDVRRDYAQHAVLTSAHATLPRSGWAWERFTNEGPLAMLPHPQTPEAYSVVWCCAPPRAQRLAGLDDEAFSRELTEAFGTRLGRLRSAAPRHVFPLELKARHAQAHGRLATIGNAAQTLHPVAGQGLNLGLRDAAQLAHALPDWLAAPQADPSPLLAAFARARLADRWVTAGLTDLMPRIFATGLAPVEHACGLALLGLDIAAPLRAPLARHLLQGLRV | not soluble
13 | MRDMGEPKLKIVAMPSDTNPAGNIFGGWILSQIDLAGAIAARELSPERVVTISMDKVVFKEPVFIGDIISCYSKVVNVGNTSISVEVEVTAQRVDSQGCTSCINVTSALVTYVSVTRDGKKNPISEELKRIHGFLNALEHHHHHH | soluble
14 | MRDSLNNGVSLQQAQETYFAKFNHYSYMAHFVAKILGQRPSHVLSGWGVSELIVAYGHYANEQSYQNFMDWKSSQENAPKPKQPQPFVVQFISQDELEEVE | not soluble
15 | MRECISIHVGQAGVQIGNACWELYCLEHGIQPDGQMPSDKTIGGGDDSFNTFFSETGAGKHVPRAVFVDLEPTVIDEVRTGTYRQLFHPEQLITGKEDAANNYARGHYTIGKEIIDLVLDRIRKLADQCTGLQGFSVFHSFGGGTGSGFTSLLMERLSVDYGKKSKLEFSIYPAPQVSTAVVEPYNSILTTHTTLEHSDCAFMVDNEAIYDICRRNLDIERPTYTNLNRLIGQIVSSITASLRFDGALNVDLTEFQTNLVPYPRAHFPLATYAPVISAEKAYHEQLSVAEITNACFEPANQMVKCDPRHGKYMACCLLYRGDVVPKDVNAAIATIKTKRTIQFVDWCPTGFKVGINYEPPTVVPGGDLAKVQRAVCMLSNTTAIAEAWARLDHKFDLMYAKRAFVHWYVGEGMEEGEFSEAREDMAALEKDYEEVGVDSVEGEGEEEGEEY | soluble
